Assay results: the supplement of paper PMC9233669
Fewer inactive variants are shown than the library holds.

Tests used:
[1] = system: biotinyl-Trp-oxazolone; assay: self-aminoacylation, catalytic enhancement (BWO) (fold over background); higher = more active; k-Seq, kA / k0A0; sequences stand for … in GGGAAUGGAUCCACAUCUACGAAUUC…UUCACUGCAGACUUGACGAAGCUG
Outline: (§1)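 Each biotinyl-aminoacyl-oxazolone, at 2–1250 μM, was incubated with mutagenized RNA pools (0.43 μM) carrying a 21-nt variable region. The 50 μL reactions contained HEPES/NaCl/KCl/MgCl2/CaCl2 buffer with 5% acetonitrile at pH 6.9–7.0 and ran for 90 minutes at room temperature. After streptavidin capture, RNA was measured by qPCR in triplicate and by Illumina sequencing, and catalytic enhancement was calculated as median kA over the uncatalyzed rate from a pseudo-first-order fit of per-sequence fraction reacted.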

[2] = system: biotinyl-Leu-oxazolone; assay: self-aminoacylation, catalytic enhancement (BLO) (fold over background); higher = more active; k-Seq, kA / k0A0; sequences stand for … in GGGAAUGGAUCCACAUCUACGAAUUC…UUCACUGCAGACUUGACGAAGCUG
Outline: as §1

[3] = system: biotinyl-Met-oxazolone; assay: self-aminoacylation, catalytic enhancement (BMO) (fold over background); higher = more active; k-Seq, kA / k0A0; sequences stand for … in GGGAAUGGAUCCACAUCUACGAAUUC…UUCACUGCAGACUUGACGAAGCUG
Outline: as §1

[4] = system: biotinyl-Phe-oxazolone; assay: self-aminoacylation, catalytic enhancement (BFO) (fold over background); higher = more active; k-Seq, kA / k0A0; sequences stand for … in GGGAAUGGAUCCACAUCUACGAAUUC…UUCACUGCAGACUUGACGAAGCUG
Outline: as §1

[5] = system: biotinyl-Ile-oxazolone; assay: self-aminoacylation, catalytic enhancement (BIO) (fold over background); higher = more active; k-Seq, kA / k0A0; sequences stand for … in GGGAAUGGAUCCACAUCUACGAAUUC…UUCACUGCAGACUUGACGAAGCUG
Outline: as §1

[6] = system: biotinyl-Val-oxazolone; assay: self-aminoacylation, catalytic enhancement (BVO) (fold over background); higher = more active; k-Seq, kA / k0A0; sequences stand for … in GGGAAUGGAUCCACAUCUACGAAUUC…UUCACUGCAGACUUGACGAAGCUG
Outline: as §1

Sequence | self-aminoacylation [1] | self-aminoacylation [2] | self-aminoacylation [3] | self-aminoacylation [4] | self-aminoacylation [5] | self-aminoacylation [6]
CUACAUCAAACAAUCGGGCUG [Fam1A.1 aminoacylation ribozyme variant] | 1.29 | 0.965 | 1.44 | 0.764 | 1.36 | 1.3
AUUCACCAAGGUCAUCGGCUG [Fam2.2 aminoacylation ribozyme variant] | 1.78 | 2.66 | 2.21 | 8.8 | 2.06 | 1.92
AUCCACCUAGGUCAUCGGGCG [Fam2.2 aminoacylation ribozyme variant] | 3.38 | 5.85 | 5.3 | 20.9 | 4.91 | 3.87
AGUCACCUAGGUCCUCGGGUG [Fam2.2 aminoacylation ribozyme variant] | 9.19 | 6.54 | 6.34 | 37.5 | 5.66 | 4.64
AUGCACCUAGGUCAUCGGUUG [Fam2.2 aminoacylation ribozyme variant] | 1.48 | 1.28 | 1.26 | 5.04 | 1.42 | 1.24
UUUCACCUGGGUCAUCGGGUG [Fam2.2 aminoacylation ribozyme variant] | 6.75 | 4.95 | 5.12 | 24.2 | 3.99 | 5.26
AUUAACCUGGUAAUCGAGUGA [Fam2.1 aminoacylation ribozyme variant] | 11.3 | 9.73 | 8.82 | 52.9 | 3.86 | 4.05
ACACAUUUCAAGCAAUCGGUC [Fam1B.1 aminoacylation ribozyme variant] | 1.86 | 1.12 | 1.12 | 2.41 | 1.2 | 1.41
AUUCACCUAGGUCAGCGGGGG [Fam2.2 aminoacylation ribozyme variant] | 5.24 | 5.24 | 5.1 | 27.6 | 4.35 | 3.43
AACUUUGGUAAUAGUCGCAAG [Fam3.1 aminoacylation ribozyme variant] | 2.24 | 3.08 | 2.22 | 3.84 | 2.58 | 2.15
CCUCACUUCGAGCAAUCGGUC [Fam1B.1 aminoacylation ribozyme variant] | 1.16 | 1.04 | 0.881 | 2.23 | 1.08 | 1.04
AAGUUUGCUAAUAGUCGCUAG [Fam3.1 aminoacylation ribozyme variant] | 1.05 | 0.809 | 0.813 | 1.68 | 0.852 | 0.852
AGUGACCUAGGUCAUCGGGUG [Fam2.2 aminoacylation ribozyme variant] | 4.64 | 4.73 | 3.53 | 25.7 | 3.48 | 3.69
AUUACCCUAGUCAUGGAGUGA [Fam2.1 aminoacylation ribozyme variant] | 5.17 | 4.06 | 4.31 | 15.5 | 2.79 | 2.68
AUCCACCUAGGUCAUCGGUUG [Fam2.2 aminoacylation ribozyme variant] | 1.84 | 1.41 | 1.5 | 5.85 | 1.31 | 1.52
CCACUCUUCACGCAAUCGGUC [Fam1B.1 aminoacylation ribozyme variant] | 0.952 | 1.13 | 1.05 | 0.819 | 1.08 | 1.21
CCACACUUCAAGCAAUAGGCC [Fam1B.1 aminoacylation ribozyme variant] | 0.71 | 1.05 | 0.9 | 0.88 | 0.939 | 1.04
CUACUUCAAACAAUCGGUUUU [Fam1A.1 aminoacylation ribozyme variant] | 1.44 | 1.1 | 0.931 | 2.35 | 1.31 | 1.26
CCUCACAUCAAGCAAUCGGUC [Fam1B.1 aminoacylation ribozyme variant] | 1.05 | 0.726 | 0.749 | 1.77 | 0.87 | 0.973
CUAAUUCAAACAAACGGUCUG [Fam1A.1 aminoacylation ribozyme variant] | 0.543 | 0.561 | 0.616 | 0.687 | 0.823 | 0.917
CCUCACUUCAGGCAAUCGGUC [Fam1B.1 aminoacylation ribozyme variant] | 0.952 | 0.947 | 0.951 | 1.59 | 0.856 | 0.932
AUUAUCCUGGUCAUCAAGUGA [Fam2.1 aminoacylation ribozyme variant] | 4.39 | 3.5 | 3.84 | 10.1 | 2.3 | 2.2
AUUCACCUAGGUCAUCGGGGG [Fam2.2 aminoacylation ribozyme variant] | 5.49 | 9.91 | 6.96 | 32.6 | 4.62 | 4.28
AAGUUCGCUAAUGGUCGCAAG [Fam3.1 aminoacylation ribozyme variant] | 1.62 | 1.8 | 1.33 | 4.06 | 1.55 | 1.5
CUACAUCAAAUAAUCGGUCUG [Fam1A.1 aminoacylation ribozyme variant] | 0.824 | 0.717 | 0.804 | 1.42 | 0.801 | 0.864
CUACGUCAGACAAUCGGUCUG [Fam1A.1 aminoacylation ribozyme variant] | 0.99 | 1.28 | 1.86 | 1.67 | 1.61 | 1.42

Sequence | self-aminoacylation [1] | self-aminoacylation [2] | self-aminoacylation [3] | self-aminoacylation [4] | self-aminoacylation [5] | self-aminoacylation [6]
AUUACGCUGGUCAUCGAGUGA [Fam2.1 aminoacylation ribozyme variant] | 5.76 | 4.69 | 4.57 | 16.1 | 3.16 | 3.23
AUUCCCCUGGUCAACGAGUGA [Fam2.1 aminoacylation ribozyme variant] | 8.98 | 7.82 | 8.04 | 49.5 | 4.6 | 4.67
UUUCACCUAGCUCAUCGGGUG [Fam2.2 aminoacylation ribozyme variant] | 2.5 | 2.24 | 1.77 | 1.68 | 2.03 | 2.73
AGUCACCAAGGUCAUCGGGUG [Fam2.2 aminoacylation ribozyme variant] | 7.87 | 7.67 | 6.59 | 51.2 | 4.38 | 4.7
GUUACCCUGGUCAUCUAGUGA [Fam2.1 aminoacylation ribozyme variant] | 13.4 | 11.7 | 12 | 78.6 | 5.9 | 6.05
ACUACCCAGGUCAUCGAGUGA [Fam2.1 aminoacylation ribozyme variant] | 5.32 | 6.28 | 5.02 | 23.2 | 3.72 | 3.89
AAGUUUGCUAACAGUCGCAAG [Fam3.1 aminoacylation ribozyme variant] | 5.51 | 0.961 | 1.29 | 21.1 | 1.18 | 1.06
CUACUUCAACCAAUCGGACUG [Fam1A.1 aminoacylation ribozyme variant] | 4.9 | 0.851 | 0.814 | 10.7 | 0.79 | 0.946
AUUUCCCUGGACAUCGAGUGA [Fam2.1 aminoacylation ribozyme variant] | 8.11 | 5.46 | 6.51 | 41.7 | 2.83 | 3.54
AUACACCUAGGUUAUCGGGUG [Fam2.2 aminoacylation ribozyme variant] | 4.77 | 2.99 | 3.19 | 19.1 | 2.73 | 2.95
AAGUUUGCUAAUAGUGGCGAG [Fam3.1 aminoacylation ribozyme variant] | 0.531 | 1.09 | 0.875 | 1.2 | 0.939 | 0.88
AUUACCCGGGUCACCGAGUGA [Fam2.1 aminoacylation ribozyme variant] | 19.5 | 21.4 | 19.3 | 145 | 6.79 | 8.28
CCACCCUUCAAACAAUCGGUC [Fam1B.1 aminoacylation ribozyme variant] | 38.9 | 2.18 | 1.43 | 81.3 | 1.39 | 1.86
AUUUCCCUGGUCAUCUAGUGA [Fam2.1 aminoacylation ribozyme variant] | 11.7 | 9.47 | 8.93 | 76.6 | 4.45 | 4.67
AUUACCCUGUUCGUCGAGUGA [Fam2.1 aminoacylation ribozyme variant] | 1.44 | 0.865 | 0.885 | 0.834 | 1.15 | 1.2
CCACACUUAAAGCGAUCGGUC [Fam1B.1 aminoacylation ribozyme variant] | 0.934 | 1 | 0.963 | 0.793 | 1.23 | 1.18
CCAAACUUCAAACAAUCGGUC [Fam1B.1 aminoacylation ribozyme variant] | 42 | 2.21 | 1.53 | 86.6 | 1.35 | 1.52
AAGUUUUGUAAUAGUCGCAAG [Fam3.1 aminoacylation ribozyme variant] | 1.84 | 1.5 | 1.53 | 2.1 | 1.64 | 1.55
UCACACUUCAAGCAAUCAGUC [Fam1B.1 aminoacylation ribozyme variant] | 5.72 | 0.817 | 0.645 | 17.9 | 0.777 | 0.932
CUACGUCACACAAUCGGUCUG [Fam1A.1 aminoacylation ribozyme variant] | 0.986 | 0.98 | 0.943 | 0.794 | 0.999 | 0.962
AUUAACCUAGGUCAUCGAGUG [Fam2.2 aminoacylation ribozyme variant] | 4.39 | 11.7 | 8.83 | 17.9 | 7.02 | 5.78
CAACUUCAAACAAUCGGUUUG [Fam1A.1 aminoacylation ribozyme variant] | 44 | 2.6 | 1.71 | 87.8 | 1.51 | 1.62
AUUACCCUGGUUAUCGAGUAA [Fam2.1 aminoacylation ribozyme variant] | 1.89 | 1.32 | 1.44 | 1.44 | 1.31 | 1.24
AUUCUCCUAGGUCAUCGGGCG [Fam2.2 aminoacylation ribozyme variant] | 4.23 | 5.06 | 3.97 | 13.6 | 3.24 | 3.43
CUACUUCACACAAUCGGCCUG [Fam1A.1 aminoacylation ribozyme variant] | 1.72 | 1.75 | 1.75 | 0.896 | 1.69 | 1.86
